# Experimental data from article PMC8164026, “Intrapulmonary administration of purified NEIL2 abrogates NF-κB–mediated inflammation”.
# B1: C1-M (dsDNA)
# DNA 1: GAAACACCCTGTACTCCGAAAAGGTCCCTGGCCCGGAGCTCTG
# DNA 2: CAGAGCTCGGGGCCAGGGACCTTTTCGGAGTACAGGGTGTTTC
# B2: C2-M (dsDNA)
# DNA 1: GGACCCTGAGCTCAGAAAAGGTCCCTGGTCCACGGGCT
# DNA 2: AGCCCGTGGACCAGGGACCTTTTCTGAGCTCAGGGTCC
# B3: IL6-M (dsDNA)
# DNA 1: TTGCTATTAAATGTGTTCGTTTGTACAGAGTCTCAAAA
# DNA 2: TTTTGAGACTCTGTACAAACGAACACATTTAATAGCAA
# Molecular target: His-RelA (p65) (UniProt Q04206 1-551)
# Sequence (Q04206 whole entry): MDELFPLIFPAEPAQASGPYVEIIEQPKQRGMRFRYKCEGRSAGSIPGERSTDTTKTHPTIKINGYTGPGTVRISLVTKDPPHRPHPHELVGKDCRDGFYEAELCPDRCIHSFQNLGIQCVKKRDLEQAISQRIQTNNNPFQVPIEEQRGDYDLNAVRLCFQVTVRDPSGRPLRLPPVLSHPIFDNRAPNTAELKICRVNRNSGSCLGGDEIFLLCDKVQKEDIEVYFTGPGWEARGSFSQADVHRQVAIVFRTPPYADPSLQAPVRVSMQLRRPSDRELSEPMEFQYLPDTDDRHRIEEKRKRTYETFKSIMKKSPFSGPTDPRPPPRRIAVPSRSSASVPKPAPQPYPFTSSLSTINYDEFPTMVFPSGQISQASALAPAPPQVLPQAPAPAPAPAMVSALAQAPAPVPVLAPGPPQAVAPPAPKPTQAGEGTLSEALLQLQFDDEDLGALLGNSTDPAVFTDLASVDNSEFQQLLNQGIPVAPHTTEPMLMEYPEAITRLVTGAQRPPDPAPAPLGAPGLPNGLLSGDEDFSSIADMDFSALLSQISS
# Assay: EMSA; EMSA: 10 mM Tris-HCl pH 7.9, 50 mM NaCl, 1 mM MgCl2, 1 mM EDTA, 5 mM DTT, 5% glycerol, 0.5 µg poly dI.dC, 2-10 µg acetylated BSA, 10 min, room temperature; gel
# Conditions: protein: recombinant, tags: His, chain copies: 2
Binder,"binding result (blunt as printed, one internal mismatch outside the motif (printed))",binding result (blunt)
B1,no binding,
B2,,no binding
B3,,no binding
